From patent publication US20220002423A1 (GENERAL HOSPITAL, published 2022)

Tests used:
[1] = molecular target: T1, Amino acid residues 130-149 of human TNFR2 (human); test: ELISA on TNFR2 peptide fragment; categorical score, 0 lowest to 4 highest affinity
T1 peptide: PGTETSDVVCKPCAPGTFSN

[2] = molecular target: T2, Amino acid residues 146-165 of human TNFR2 (human); test: as above
T2 peptide: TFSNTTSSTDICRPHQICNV

[3] = molecular target: T3, Amino acid residues 154-174 of human TNFR2 (human); test: as above
T3 peptide: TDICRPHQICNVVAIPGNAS

[4] = molecular target: T4, Amino acid residues 1-20 of human TNFR2 (human); test: as above
T4 construct: 20-mer fragment
T4 peptide: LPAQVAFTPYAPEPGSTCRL

[5] = molecular target: T5, Amino acid residues 82-101 of human TNFR2 (human); test: as above
T5 peptide: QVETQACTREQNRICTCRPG

[6] = molecular target: T6, Amino acid residues 90-109 of human TNFR2 (human); test: as above
T6 peptide: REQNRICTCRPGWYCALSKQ

[7] = molecular target: T7, Amino acid residues 50-69 of human TNFR2 (human); test: as above
T7 peptide: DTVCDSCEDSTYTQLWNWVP

[8] = molecular target: T8, Amino acid residues 138-157 of human TNFR2 (human); test: as above
T8 peptide: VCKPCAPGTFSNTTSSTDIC

[9] = molecular target: T9, Amino acid residues 122-141 of human TNFR2 (human); test: as above
T9 peptide: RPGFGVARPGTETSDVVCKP

[10] = molecular target: T10, Amino acid residues 66-85 of human TNFR2 (human); test: as above
T10 peptide: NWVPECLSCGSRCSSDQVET

[11] = molecular target: T11, Amino acid residues 17-36 of human TNFR2 (human); test: as above
T11 peptide: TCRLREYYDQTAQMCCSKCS

[12] = molecular target: T12, Amino acid residues 9-28 of human TNFR2 (human); test: as above
T12 peptide: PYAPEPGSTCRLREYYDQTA

[13] = molecular target: T13, Amino acid residues 162-181 of human TNFR2 (human); test: as above
T13 peptide: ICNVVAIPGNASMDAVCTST

[14] = molecular target: T14, Amino acid residues 170-189 of human TNFR2 (human); test: as above
T14 peptide: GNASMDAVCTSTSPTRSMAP

[15] = molecular target: T15, Amino acid residues 58-77 of human TNFR2 (human); test: as above
T15 peptide: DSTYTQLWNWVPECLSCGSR

[16] = molecular target: T16, Amino acid residues 114-133 of human TNFR2 (human); test: as above
T16 peptide: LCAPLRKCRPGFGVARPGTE

[17] = molecular target: T17, Amino acid residues 42-61 of human TNFR2 (human); test: as above
T17 peptide: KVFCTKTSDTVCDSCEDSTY

[18] = molecular target: T18, Amino acid residues 74-93 of human TNFR2 (human); test: as above
T18 peptide: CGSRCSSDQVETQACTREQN

[19] = molecular target: T19, Amino acid residues 106-125 of human TNFR2 (human); test: ELISA, antibody alone
T19 sequence (peptide): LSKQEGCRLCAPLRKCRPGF

[20] = molecular target: T20, Amino acid residues 26-45 of human TNFR2 (human); test: ELISA, antibody alone
T20 sequence (peptide): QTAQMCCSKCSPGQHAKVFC

[21] = molecular target: T21, Amino acid residues 98-117 of human TNFR2 (human); test: ELISA, antibody alone
T21 sequence (peptide): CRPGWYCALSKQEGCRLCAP

[22] = molecular target: T22, Amino acid residues 34-53 of human TNFR2 (human); test: ELISA, antibody alone
T22 sequence (peptide): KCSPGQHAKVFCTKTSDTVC

[23] = molecular target: T10, Amino acid residues 66-85 of human TNFR2; test: ELISA, antibody with TNFα added
[24] = molecular target: T18, Amino acid residues 74-93 of human TNFR2; test: ELISA, antibody with TNFα added
[25] = molecular target: T23, Amino acid residues 108-127 of human TNFR2 (human); test: ELISA, coated linear peptides 1 µg/well, antibody 0.1 µg/well
T23 sequence (peptide): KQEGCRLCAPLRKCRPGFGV

[26] = molecular target: T19, Amino acid residues 106-125 of human TNFR2 (human); test: as above
[27] = molecular target: T20, Amino acid residues 26-45 of human TNFR2 (human); test: as above
[28] = molecular target: T21, Amino acid residues 98-117 of human TNFR2 (human); test: as above

B1: agonistic TNFR2 antibody TNFRAG1 (antibody, V domains shown)
VH: EVQLQQFGAELVKPGASVKISCKASGYTFTDYNIDWVKQSHGKSLEWIGDINPNYDSTSYSQKFRGKATLTVDKSSSTAYMELRSLTSEDTAVYYCARGNSWYFDVWGAGTTVTVSS
VL: QIVLTQSPALMSASPGEKVTMTCSASSSVRYMYWYQQKPRSSPKPWIYLTSNLASGVPARFSGSGSGTSYSLTISSMEAEDAATYYCQQWSSNPLTFGAGTKLELK
notes: the primary antibodies were detected with secondary antibodies against rodent IgG; also called monoclonal TNFR2 antibody TNFRAG1; TNFR2 agonist antibody
Q: How did the “Affinity Score” value [1] turn out when B1 was run?
A: 0

Q: And the “Affinity Score” value [2]?
A: 0

Q: What about the “Affinity Score” value [3] of the same binder?
A: 0

Q: And the “Affinity Score” value [4]?
A: 0

Q: What about the “Affinity Score” value [5] of the same binder?
A: 0

Q: What about the “Affinity Score” value [6] of the same binder?
A: 2

Q: What about the “Affinity Score” value [7] of the same binder?
A: 0

Q: What about the “Affinity Score” value [8] of the same binder?
A: 0

Q: And the “Affinity Score” value [9]?
A: 0

Q: And the “Affinity Score” value [10]?
A: 0

Q: What about the “Affinity Score” value [11] of the same binder?
A: 0

Q: And the “Affinity Score” value [12]?
A: 0

Q: And the “Affinity Score” value [13]?
A: 0

Q: What about the “Affinity Score” value [14] of the same binder?
A: 0

Q: And the “Affinity Score” value [15]?
A: 0

Q: And the “Affinity Score” value [16]?
A: 0

Q: And the “Affinity Score” value [17]?
A: 0

Q: What about the “Affinity Score” value [18] of the same binder?
A: 0

Q: What about the Reading [19] of the same binder?
A: 2

Q: And the Affinity [20]?
A: 1

Q: And the Reading [20]?
A: 0.1

Q: And the Affinity [21]?
A: 1

Q: And the Reading [21]?
A: 2

Q: What about the Affinity [22] of the same binder?
A: 1

Q: Does B1 bind [23]?
A: no binding

Q: Does B1 bind [24]?
A: no binding

Q: What about the Affinity [25] of the same binder?
A: 2

Q: What about the Reading [25] of the same binder?
A: 0

Q: What about the Affinity [26] of the same binder?
A: 2

Q: And the Reading [26]?
A: 0

Q: What about the Affinity [27] of the same binder?
A: 1

Q: And the Reading [27]?
A: 0

Q: What about the Affinity [28] of the same binder?
A: 1

Q: What about the Reading [28] of the same binder?
A: 0
